Assay results: PMC12733864 (International Journal of Molecular Sciences, 2025)

Target: T1, recombinant D III domain of the WNV structural E glycoprotein (West Nile virus; strain of the …, UniProt Q9Q6P4)
T1 construct: also called recombinant DIII protein; recombinant analog of D III of WNV glycoprotein E
Test: BLI; Octet K2, NTA biosensors loaded with recombinant DIII (20 ug/mL); antibodies in solution at five concentrations from 10.4 to 166.4 nM; PBS; global fit of the 1:1 model; triplicate
Settings: both partners purified

T1 sequence (Q9Q6P4 whole entry, looked up, the tested form may be a part): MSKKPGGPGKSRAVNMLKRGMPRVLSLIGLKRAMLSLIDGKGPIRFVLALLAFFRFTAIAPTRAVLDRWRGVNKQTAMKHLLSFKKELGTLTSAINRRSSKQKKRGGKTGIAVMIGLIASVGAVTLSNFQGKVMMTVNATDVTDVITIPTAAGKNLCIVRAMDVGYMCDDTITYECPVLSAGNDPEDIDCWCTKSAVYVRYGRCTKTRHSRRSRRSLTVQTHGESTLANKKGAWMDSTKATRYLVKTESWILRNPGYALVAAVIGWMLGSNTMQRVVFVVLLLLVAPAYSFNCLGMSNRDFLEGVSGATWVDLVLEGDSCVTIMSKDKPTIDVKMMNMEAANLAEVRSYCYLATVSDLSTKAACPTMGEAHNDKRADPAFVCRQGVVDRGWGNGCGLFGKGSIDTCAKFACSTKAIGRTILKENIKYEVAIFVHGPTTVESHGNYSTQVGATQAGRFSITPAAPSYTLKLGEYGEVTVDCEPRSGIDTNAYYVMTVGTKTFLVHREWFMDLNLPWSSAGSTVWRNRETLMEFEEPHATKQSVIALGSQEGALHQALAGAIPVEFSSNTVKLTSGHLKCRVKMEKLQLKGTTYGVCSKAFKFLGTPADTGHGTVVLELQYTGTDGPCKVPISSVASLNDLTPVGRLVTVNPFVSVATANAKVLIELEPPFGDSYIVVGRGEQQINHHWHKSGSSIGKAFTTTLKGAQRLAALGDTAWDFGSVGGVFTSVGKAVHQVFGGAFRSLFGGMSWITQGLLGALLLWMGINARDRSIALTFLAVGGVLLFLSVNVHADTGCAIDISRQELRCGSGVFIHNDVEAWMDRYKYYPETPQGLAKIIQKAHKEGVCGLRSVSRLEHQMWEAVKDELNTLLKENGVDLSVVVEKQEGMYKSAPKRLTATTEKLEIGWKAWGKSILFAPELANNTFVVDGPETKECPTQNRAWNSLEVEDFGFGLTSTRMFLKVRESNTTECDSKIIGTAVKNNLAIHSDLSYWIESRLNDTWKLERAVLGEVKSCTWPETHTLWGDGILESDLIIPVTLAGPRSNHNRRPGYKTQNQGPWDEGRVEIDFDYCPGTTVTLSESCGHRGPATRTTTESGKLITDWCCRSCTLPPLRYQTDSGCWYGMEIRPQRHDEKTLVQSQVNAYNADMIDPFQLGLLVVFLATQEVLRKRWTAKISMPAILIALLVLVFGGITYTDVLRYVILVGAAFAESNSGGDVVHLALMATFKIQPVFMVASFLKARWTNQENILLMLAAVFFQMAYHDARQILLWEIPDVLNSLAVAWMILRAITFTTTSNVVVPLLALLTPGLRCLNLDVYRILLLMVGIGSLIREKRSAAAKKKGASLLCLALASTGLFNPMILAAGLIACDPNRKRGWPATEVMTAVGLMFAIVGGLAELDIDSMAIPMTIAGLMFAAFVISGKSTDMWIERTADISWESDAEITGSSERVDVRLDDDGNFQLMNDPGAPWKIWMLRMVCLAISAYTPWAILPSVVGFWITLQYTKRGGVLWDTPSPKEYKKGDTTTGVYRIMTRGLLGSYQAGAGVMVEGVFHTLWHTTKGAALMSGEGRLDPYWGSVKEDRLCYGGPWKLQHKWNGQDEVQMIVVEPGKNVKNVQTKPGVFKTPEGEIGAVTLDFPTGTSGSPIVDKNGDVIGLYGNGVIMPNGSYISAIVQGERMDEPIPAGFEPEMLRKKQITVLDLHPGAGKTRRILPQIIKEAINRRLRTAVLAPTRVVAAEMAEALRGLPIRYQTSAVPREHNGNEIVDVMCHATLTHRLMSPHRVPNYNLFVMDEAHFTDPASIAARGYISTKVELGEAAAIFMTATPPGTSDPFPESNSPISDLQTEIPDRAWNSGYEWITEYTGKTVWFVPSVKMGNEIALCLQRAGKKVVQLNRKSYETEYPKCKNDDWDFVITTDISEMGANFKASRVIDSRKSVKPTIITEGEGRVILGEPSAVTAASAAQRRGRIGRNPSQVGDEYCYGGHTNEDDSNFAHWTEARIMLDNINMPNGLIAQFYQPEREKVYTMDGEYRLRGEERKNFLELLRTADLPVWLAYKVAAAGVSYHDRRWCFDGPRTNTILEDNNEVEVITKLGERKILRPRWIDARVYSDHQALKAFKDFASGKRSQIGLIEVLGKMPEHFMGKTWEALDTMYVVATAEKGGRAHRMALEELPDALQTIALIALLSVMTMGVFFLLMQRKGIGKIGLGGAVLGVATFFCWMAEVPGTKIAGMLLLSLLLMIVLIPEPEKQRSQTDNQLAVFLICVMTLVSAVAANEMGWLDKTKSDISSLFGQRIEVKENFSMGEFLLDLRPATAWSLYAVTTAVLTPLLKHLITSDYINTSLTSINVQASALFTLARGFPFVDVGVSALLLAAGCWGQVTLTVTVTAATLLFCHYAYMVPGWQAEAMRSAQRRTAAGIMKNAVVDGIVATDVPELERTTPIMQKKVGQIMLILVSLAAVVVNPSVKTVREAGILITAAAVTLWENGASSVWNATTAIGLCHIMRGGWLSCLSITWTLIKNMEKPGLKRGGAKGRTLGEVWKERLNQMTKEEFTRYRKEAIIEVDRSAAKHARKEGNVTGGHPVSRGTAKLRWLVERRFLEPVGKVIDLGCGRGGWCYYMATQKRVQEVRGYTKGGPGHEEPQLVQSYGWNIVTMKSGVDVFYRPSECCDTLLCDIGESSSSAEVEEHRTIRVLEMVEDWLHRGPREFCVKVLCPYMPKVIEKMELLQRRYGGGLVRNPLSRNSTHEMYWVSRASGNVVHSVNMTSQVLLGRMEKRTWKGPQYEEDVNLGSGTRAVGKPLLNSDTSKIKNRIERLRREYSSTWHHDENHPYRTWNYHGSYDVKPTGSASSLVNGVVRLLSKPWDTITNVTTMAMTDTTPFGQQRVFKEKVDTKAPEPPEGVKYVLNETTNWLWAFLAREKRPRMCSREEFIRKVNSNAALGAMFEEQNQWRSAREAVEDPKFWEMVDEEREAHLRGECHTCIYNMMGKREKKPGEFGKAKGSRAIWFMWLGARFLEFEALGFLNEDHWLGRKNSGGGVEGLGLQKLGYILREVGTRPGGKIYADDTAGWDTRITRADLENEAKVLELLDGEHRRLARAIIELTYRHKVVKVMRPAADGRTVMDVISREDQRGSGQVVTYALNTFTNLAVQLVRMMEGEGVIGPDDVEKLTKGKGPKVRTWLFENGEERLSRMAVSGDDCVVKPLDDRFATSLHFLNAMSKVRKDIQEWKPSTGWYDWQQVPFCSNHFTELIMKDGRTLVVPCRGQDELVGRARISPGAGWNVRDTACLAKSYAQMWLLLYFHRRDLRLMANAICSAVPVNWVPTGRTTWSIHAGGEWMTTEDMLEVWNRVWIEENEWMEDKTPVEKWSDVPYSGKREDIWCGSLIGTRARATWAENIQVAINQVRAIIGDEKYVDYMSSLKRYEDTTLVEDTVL

B1: recombinant chimeric monoclonal antibody (mAb) 900, variant V4 (scFv-Fc, M252Y/S254T/T256E and H433K/N434F in the human IgG1 Fc) (antibody, V domains shown)
VH: EVQLQQSGAELVKPGASVKLSCKASGYIFTNYDINWVRQRPEQGLEWIGWIFPEDGRTKNNEKFKGKATLTTDKSSSTAYMQLSRLTSEDSAVYFCARGGGYGNYFDYWGQGTLVTVS
VL: DIVMTQAHKFMSTSVGDRVSITCKASQDVSTAVAWYQQKPGQSPKVLIYWASTRHTGVHDRFTGSGSGTDYTLTISSVQAEDLALYYCQQHYSNPLTFGAGTKLELK
Kd: ~2.3 nM
